Data taken from patent US8758763B2, “Archaeal polar lipid aggregates for administration to animals” (National Research Council of Canada, priority 2006, dated 2014).

B1: OVA/saline: OVA in saline, no adjuvant control (protein, UniProt P01012 2-386, looked up)
Ovalbumin: GSIGAASMEFCFDVFKELKVHHANENIFYCPIAIMSALAMVYLGAKDSTRTQINKVVRFDKLPGFGDSIEAQCGTSVNVHSSLRDILNQITKPNDVYSFSLASRLYAEERYPILPEYLQCVKELYRGGLEPINFQTAADQARELINSWVESQTNGIIRNVLQPSSVDSQTAMVLVNAIVFKGLWEKAFKDEDTQAMPFRVTEQESKPVQMMYQIGLFRVASMASEKMKILELPFASGTMSMLVLLPDEVSGLEQLESIINFEKLTEWTSSNVMEERKIKVYLPRMKMEEKYNLTSVLMAMGITDVFSSSANLSGISSAESLKISQAVHAAHAEINEAGREVVGSAEAGVDAASVSEEFRADHPFLFCIKHIATNAVLFFGRCVSP
B2: OVA/CaCl2: OVA in saline supplemented with 15 mM CaCl2, no adjuvant group (protein, UniProt P01012 2-386, looked up)
Ovalbumin: B1 Ovalbumin

Legend:
OVA [1] = assay type: in vivo, Balb/c mice
EG.7 cells = assay: Cytotoxic T lymphocyte (CTL) assay, 51Cr release, spleen cells of immunized mice; assay type: in vivo, C57BL/6 mice; conditions: i.n. at 0, 7, 21 d, 10 μg OVA/immunization; spleen cells at 36-42 d; target EG.7 cells
Experimental: For conducting cytotoxic (cytotolytic) T Lymphocyte (CTL) assays, EL-4 and EG.7 (subclone of EL-4 that has been stably transfected with the gene encoding for OVA expression), cell lines were obtained from the American Type Culture Collection (ATCC, Manassas, Va., USA). Both cell lines were maintained in RPMI 1640 medium (Life Technologies, Grand Island, N.Y.) supplemented with 8% fetal bovine serum (FBS, Invitrogen Canada, Inc., Burlington, Ontario, Canada), except that 400 μg/ml G418 supplement (Invitrogen Canada Inc.) was also added for maintaining the EG.7 cell line. All cells were cultured at 37° C. in a humidified atmosphere of air containing 8% CO2. […]
After 5 days incubation (37° C., 8% CO2 in air), the cells were recovered, washed, and counted for use as effector cells for the CTL assay. […] The culture supernatants were collected and the released radioactivity in 70 μl aliquots for gamma counter or in 50 μl aliquots for beta counter, was measured after adding to 150 μl Optiphase Supermix^R scintillant (PerkinElmer LAS Canada, Inc., Woodbridge, Ontario, Canada). Percent specific cell lysis was calculated as 100×[(cpm experimental−cpm spontaneous)/cpm maximum−cpm spontaneous)]. […]

OVA [2] = assay: Anti-OVA antibody responses (ELISA) in immunized C57BL/6 mice; conditions: i.n. at 0, 7, 21 d, 10 μg OVA/immunization; 28 d

| Molecule | anti-OVA IgA responses (OVA [1]; mouse, in vivo) | CTL response, specific cell lysis (EG.7 cells) | anti-OVA IgA responses in fecal, vaginal wash and serum samples (OVA [2]) | serum IgG, IgG1 and IgG2a responses (OVA [2]) | anti-OVA IgA antibody responses (fecal, vaginal, nasal, bile, serum) (OVA [1]; 28 d) |
| --- | --- | --- | --- | --- | --- |
| B1 | negligible to not measurable | no CTL response | Little to no measurable | measurable, but smaller | – |
| B2 | – | – | – | – | little or no measurable |
